Assay results: patent publication US5962294A, “Compositions and methods for the identification and synthesis of sialyltransferases” (The Regents of the University of California, priority 1993, dated 1999)
Changes are numbered by the printed parent chain.

Columns and labels:
[1] = biological target: asialofetuin (Galβ1,3GalNAc-Thr/Ser and Galβ1,4GlcNAc-R)
[2] = biological target: ovine submaxillary asialo-mucin (GalNAc-Thr/Ser) (ovine)
[3] = biological target: asialo-α1-acid glycoprotein (Galβ1,4GlcNAc-R)
[4] = biological target: antifreeze glycoprotein (Galβ1,3GalNAc-Thr)
[5] = biological target: asialo-α1-acid glycoprotein (Galβ1,4GlcNAc-R); remark: listed apart in the source
[6] = biological target: [14C]NeuAc labeled α1-acid glycoprotein produced from the asialo-derivative using ST3N enzyme
[7] = biological target: [14C]NeuAc labeled α1-acid glycoprotein produced from the asialo-derivative using ST3 enzyme
[8] = biological target: [14C]NeuAc labeled α1-acid glycoprotein produced from the asialo-derivative using ST6N enzyme
rat ST3N = biological target: T1, rat ST3N (Rattus norvegicus, UniProt Q02734); test: Acceptor specificity of soluble rat ST3N fusion protein (Table 3); conditions: acceptor 0.2 mM; relative to LNT
T1 sequence (Q02734 29-374 limits assumed): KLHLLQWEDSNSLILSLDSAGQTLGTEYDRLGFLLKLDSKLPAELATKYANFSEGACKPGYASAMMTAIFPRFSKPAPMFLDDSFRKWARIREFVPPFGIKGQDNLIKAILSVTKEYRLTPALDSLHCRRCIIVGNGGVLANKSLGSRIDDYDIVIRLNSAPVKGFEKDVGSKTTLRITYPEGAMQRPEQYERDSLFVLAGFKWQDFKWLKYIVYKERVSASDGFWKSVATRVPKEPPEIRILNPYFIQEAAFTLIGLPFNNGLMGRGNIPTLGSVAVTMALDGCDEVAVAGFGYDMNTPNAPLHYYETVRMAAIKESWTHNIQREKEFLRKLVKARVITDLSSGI

ST3O = biological target: T2, ST3O (Sus scrofa, UniProt Q02745); test: Acceptor specificity of ST3O (Table 4); conditions: acceptor 0.2 mM
T2 sequence (Q02745 28-343 limits assumed): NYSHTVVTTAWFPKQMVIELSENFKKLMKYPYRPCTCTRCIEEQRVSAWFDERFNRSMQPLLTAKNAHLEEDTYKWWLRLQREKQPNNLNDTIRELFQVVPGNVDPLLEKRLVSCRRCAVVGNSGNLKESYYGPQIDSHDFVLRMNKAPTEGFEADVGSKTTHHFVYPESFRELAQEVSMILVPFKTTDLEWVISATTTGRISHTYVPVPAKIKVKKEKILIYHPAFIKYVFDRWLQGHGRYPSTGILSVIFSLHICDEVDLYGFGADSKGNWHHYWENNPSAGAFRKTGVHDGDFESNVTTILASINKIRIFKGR

human ST3N = biological target: T3, human ST3N (Homo sapiens, UniProt Q11203); test: Acceptor specificity of soluble human ST3N (protein A fusion from COS-1 cells, on IgG Sepharose); conditions: acceptor 0.2 mM; relative to LNT
T3 sequence (Q11203 62-375): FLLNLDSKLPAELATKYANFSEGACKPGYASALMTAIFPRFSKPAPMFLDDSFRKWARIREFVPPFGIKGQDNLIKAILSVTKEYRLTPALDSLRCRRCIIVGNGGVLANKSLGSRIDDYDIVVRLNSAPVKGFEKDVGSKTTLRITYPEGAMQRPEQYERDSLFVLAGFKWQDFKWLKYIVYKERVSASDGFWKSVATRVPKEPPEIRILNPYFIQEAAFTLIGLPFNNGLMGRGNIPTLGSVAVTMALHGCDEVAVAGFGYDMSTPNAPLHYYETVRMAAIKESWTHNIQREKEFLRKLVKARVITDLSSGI

ST3N = biological target: T4, ST3N (Rattus norvegicus, UniProt Q02734); test: Acceptor specificity of ST3N (Table 4); conditions: acceptor 0.2 mM
T4 sequence (Q02734 29-374 limits assumed): T1 sequence (Q02734 29-374 limits assumed)

[9] = test system: sialidase from Newcastle disease virus; format: biochemical; conditions: product formed by the named enzyme, hydrolyzed with Newcastle disease virus sialidase

## soluble protein A/ST3 fusion (expression plasmid AZ3), human ST3 sialyltransferase (from UniProt P02976) (enzyme)
[1]
  Relative rate (%) of sialic acid transfer, acceptor 0.2 mM: 92%
[2]
  Relative rate (%) of sialic acid transfer, acceptor 0.2 mM: 3.8%
[3]
  Relative rate (%) of sialic acid transfer, acceptor 0.2 mM: 51%
[4]
  Relative rate (%) of sialic acid transfer, acceptor 0.2 mM: 50%

## soluble protein A/human ST3N fusion (expression plasmid A3NHP), human Galβ1,3(4)GlcNAc α2,3-sialyltransferase (from UniProt P02976) (enzyme)
[5]
  Relative activity (%), acceptor 0.2 mM: 14%

## signal peptide-ST (sp-ST), soluble form of porcine Galβ1,3GalNAc α2,3 sialyltransferase (pSVL-spST) (enzyme)
[1]
  Relative rate (%) of sialic acid transfer, acceptor 0.2 mM: 26%
[2]
  Relative rate (%) of sialic acid transfer, acceptor 0.2 mM: 5%
[3]
  Relative rate (%) of sialic acid transfer, acceptor 0.2 mM: 0%
[4]
  Relative rate (%) of sialic acid transfer, acceptor 0.2 mM: 57%

## sialidase from Newcastle disease virus (Oxford Glycosystems) (enzyme)
[6]
  release of [14C]NeuAc from labeled glycoprotein (% of total 14C NeuAc released): 82
[7]
  release of [14C]NeuAc from labeled glycoprotein (% of total 14C NeuAc released): 83
[8]
  release of [14C]NeuAc from labeled glycoprotein (% of total 14C NeuAc released): 0

## CC(=O)N[C@H]1C(O)O[C@H](CO)[C@@H](O)[C@@H]1O[C@@H]1O[C@H](CO)[C@H](O)[C@H](O)[C@H]1O (stereo partly shown) [Galβ1,3GlcNAc]
Rat ST3N
  Relative activity (%) Rat: 49%
ST3O
  Relative rate (%) ST30: 2%
Human ST3N
  Relative activity (%) Human: 48%
ST3N
  Relative rate (%) ST3N: 49%

B1: ST3: human sialyltransferase of SEQ. ID. NO:12; β-galactoside α2,3-sialyltransferase (protein)
chain: MCPAGWKLLAMLALVLVVMVWYSISREDRYIEPFYFPIPEKKEPCLQGEAESKASKLFGNYSRDQPIFLRLEDYFWVKTPSAYELPYGTKGSEDLLLRVLAITSSSIPKNIQSLRCRRCVVVGNGHRLRNSSLGDAINKYDVVIRLNNAPVAGYEGDVGSKTTMRLFYPESAHFDPKVENNPDTLLVLVAFKAMDFHWIETILSDKKRVRKGFWKQPPLIWDVNPKQIRILNPFFMEIAADKLLSLPMQQPRKIKQKPTTGLLAITLALHLCDLVHIAGFGYPDAYNKKQTIHYYEQITLKSMAGSGHNVSQEALAIKRMLEMGAIKNLTSF
[9]
  total [14C]NeuAc released from labeled α1-acid glycoprotein product: 83%

B2: rat Galβ1,4GlcNAc α2,6-sialyltransferase (protein)
chain: SKQDPKEDIPILSYHRVTAKVKPQPSFQVWDKDSTYSKLNPRLLKIWRNYLNMNKYKVSYKGPGPGVKFSVEALRCHLRDHVNVSMIEATDFPFNTTEWEGYLPKENFRTKVGPWQRCAVVSSAGSLKNSQLGREIDNHDAVLRFNGAPTDNFQQDVGSKTTIRLMNSQLVTTEKRFLKDSLYTEGILIVWDPSVYHADIPKWYQKPDYNFFETYKSYRRLDPSQPFYILKPQMPWELWDIIQEISADLIQPNPPSSGMLGIIIMMTLCDQVDIYEFLPSKRKTDVCYYHQKFFDSACTMGAYHPLLFEKNMVKHLNEGTDEDIYLFGKATLSGFRNIRC
[9]
  total [14C]NeuAc released from labeled α1-acid glycoprotein product: 0%

B3: rat Galβ1,3(4)GlcNAc α2,3 sialyltransferase (protein)
chain: T1 sequence (Q02734 29-374 limits assumed) with W226S, G257R
[9]
  total [14C]NeuAc released from labeled α1-acid glycoprotein product: 82%
